Results taken from a protein production outcome set (Wang et al. 2014).

Experiment: label from the status in PepcDB records

Row | Sequence | protein production
1 | MDFDLSEEQRLLKESVEGLLKGSYDFDSRKKYAKEKGGWSRAVWGKFAEQGLLGLPFSEEDGGFGAGAVETMIVMEALGHSLVLEPYLPTVVIGGGFLRRAGSAAQKAAHLPGIIDGSKTFAFAQLEKNSRWDLGDVSTTAKKSGDGWVIDGEKFVVLNGEAADTLIVTARTKGGQRDRTGVGVFLVPADAKGITRKGYPTQDGLHAADITFTGVQVGADAAIGDPENALELIEAVVDDARTALCAEAVGLMDESLTTTVEYIKTRKQFGVPIGSFQVLQHRAADMFVATEQARSMAMFATMAAEFDDAKERAGAIAAAKVQIGKSGKFVGQQSIQLHGGIGMTMEAKIGHYFKRLTMIEQTFGDTDHHLARVSAGGGLI | not failed
2 | MSWFDDLFSNKENSDEELLRRKSKRRNGDLTQNKDDSLLPENNDIYDRPRGKFRFPIDVGQDENYEEAIYRDSNDDIGSYRPHSSNDHSSYDSFDYDGHTNQSNNYAKYDSSEDSRRRRRRNHINQDDTGIPSIKSRSPKSSNKYIDTRESQRFNKHQNNYSSTNVSNYSKANSNHQSRVKLQSERFKSNYHLSSEPTYHRSSFKTSEVPSAIFGTKKRRPIENGVIPPVKDDEDSKESITKYSSSTVEHVPHESNHAIADNSNKEDTKRSSQLDSSITIENESTIESSSNTSNNNERTPNYSKRDNTVNIENIYASQIVEEIRKERERKVQQKRKFKEALQNKRQQTDEEDSIQRAIDEMYAKQAEQYTGESSLNQGDNVSNKSNESEIDKSKHSYHSKDKSLVDEHNGLVQNQTDEQTNSDNVDNQTEVSNESHEPYNYEEIDLNQVSSVQQVRQDDVQVKDVLEEQSSKINNNKVESYSNEKFDDYLEDTNSHEEMLHDDDLHEQVMDDDENEGISNKTTDENNDEKIDDANYREINESESLMQDKANDLKFNDEVNNSENQQNSSENNINNAVRNAVSSDIEYATNEDEENDERLAQDTNKEDQKLSQSEDIQHESLNNEDVSLTSNKTDDSEHLEKDSLNEDKKAEPSFNKTNKAPQKMSIKPGSKPFNVVMTPSDKKRVMDAKKNSVSRNKVNVPELKPETKKEAQDEKMNAEFDNHLNESQLNSDESSDFNVASLEYNESSEHSVEKDNIINDENTRENEHQDVDNSQNNDMPKGNQFSKVQNSNNQNDNKHDINEFVSKEGYSEVTSTKNHKDGDDANHKAPIRRGPNIKLPSLDLLEDHEEHEIDESWIEEKKQELNDAFYYFNVPAEVQNVTEGPSVTRFELAVEKGVKVSRITALQDDIKMALAAKDIRIEAPIPGTSLVGIEVPNLNPTKVNLKSILESPKFKNAESKLTVAMGNRINNEPLLMDIAKTPHALIAGATGSGKSVCINSILMSLLYKNHPEELRLLLIDPKMVELAPYNDLPHLVSPVITDVKAATQSLKWAVDEMEKRYKLFAQFHVRNITAFNKKAPYEQRMPKIVIVIDELADLMMMAPQEVEQSIARIAQKARACGIHMLVATQRPSVNVITGLIKANIPTRIAFMVSSSVDSRTILDSGGAERLLGYGDMLYLGSGMNKPIRVQGTFVSDDEIDDVVDFIKDQREPDYLFEEKELLKKNQTQAQDELFDDVCEFMVKEGHISTSLIQRHFQIGYNRAARIVDQLEQLDYISGANGSKPRDVFITEADLKKE | failed
3 | MSLMIKVEDMMTRHPHTLLRTHTLNDAKHLMEALDIRHVPIVDANKKLLGIVSQRDLLAAQESSLQRSAQGDSLAFETPLFEVMHTDVTSVAPQAGLKESAIYMQKHKIGCLPVVAKDVLVGIITDSDFVTIAINLLELQEESEPDELDEEQEGHHHHHH | not failed
4 | MKHCLKFALLAGFALLLTACGFHLRGLGGSLKPLPFSTMYLEATGKSIEADLRTVFARDPKLSVMSEPKGAQAVVSVVSENQSKDILTINTGGRINEYQLTYTVVVRTVIGGVPVDPDMVVTVRRSLNYSDNQVLGKQQEEDLLWADARRDAAEQIVRRLAYLKVPAAPLAGPVSVKPDAVPQPLEHHHHHH | not failed
5 | MLADHARALDALRSALTPLKAELVAAELESIPVSRLKDVTEGRLRLGAVEAAGFTSVRGVYEAGRYELRQLPGVGEQTADRALAAARQIARAVAETVSVRLDVDHPEPRTTALVVALHRLVEAGPELRRALDAATRLDERLGALLPAARPAGGRLRLALAGRHRREDALAAAAETRDLVAEATARDVPLLLAQASTDLLRDPASDIEAWVDFELRSAEYYSQLAEVSEHRPDAEAGEGFLPSGVAERVHAQPLDDTHRRVSLRGYQSFGARFALAQRRVVLGDEMGLGKTVQAIAALAHLAAEGHSHFLVVCPASVLINWTREIRARSTLRALPVHGADRRDAYEEWRERGGVAVTTFDVLHSLPVPDTEKPGMLVVDEAHYVKNPDTRRAKAVTGWTAHCDRVLFLTGTPMENRVEEFRALVRHLQPALLPAVQGGGVAAGPHAFRKSVAPAYLRRNQQDVLTELPALVQVDEWEELSAADRDAYRKAVAEGNFMAMRRAAYADAEKSAKLGRLRELVAEAADNGLKVVVFSYFREVLATVQQCLGEPVLGPISGGVPAARRQRLVDAFAAIDGHAVLLAQIEAGGTGLNLQAASVVILCEPQVKPTMEHQAVARAHRMGQIRTVQVHRLLATDSVDDRLLRILKNKDRLFDAYARRSDIAEATPDAVDVSDASLARRIVEEEQQRLAARPADQPARTTS | failed
6 | MASADEKVVEEKASVISSLLDKAKGFFAEKLANIPTPEATVDDVDFKGVTRDGVDYHAKVSVKNPYSQSIPICQISYILKSATRTIASGTIPDPGSLVGSGTTVLDVPVKVAYSIAVSLMKDMCTDWDIDYQLDIGLTFDIPVVGDITIPVSTQGEIKLPSLRDFF | not failed
7 | MVTDKSKKAKTEEENVEQIDAELVLSIEKLQEIQDDLEKINEKASDEVLEVEQKYNVIRKPVYDKRNEIIKTIPDFWLTAFLSHPALGELLTEEDQKIFKYLSSLDVEDAKDVKSGYSITFSFNPNPFFEDGKLTKTFTFLEEGTTKITATPIKWKEGKGLANGVNHEKNGNKRALPEESFFTWFSDAQHKEDVEDEMQDEVADIIKEDLWPNPLTYFNNDADEEDFDGDDDGDEEEKEGDSDEDDDEEDEVGEE | failed
8 | MAHRTWGGRFGEGPDALAARFNASLAFDRALWREDLWQNRVHARMLHAVGLLSAEELEAILKGLDRIEEEIEAGTFPWREELEDVHMNLEARLTELVGPPGGKLHTARSRNDQVATDLRLYLRGAIDELLALLLALRRVLVREAEKHLDPLYVLPGYTHLQRAQPVLLAHWFLAYYEMLKRDAGRLEDAKERLNESPLGAAALAGTGFPIDRHFTARELGFKAPMRNSLDAVASRDFALEVLSALNIGMLHLSRMAEELILYSTEEFGFVEVPDAFATGSSIMPQKKNPDILELIRAKAGRVLGAFVGLSAVVKGLPLAYNKDLQEDKEPLLDALATYRDSLRLLAALLPGLKWRRERMWRAAEGGYTLATELADYLAEKGLPFREAHHVVGRLVRRLVEEGRALKDLTLEELQAHHPLFAEDALPLLRLETAIHRRRSYGGTAPEAVRERLEEAKKEVGLD | not failed
9 | TAEEVVTVALRCPSGNVLRRRFLKSYSSQVLFDWMTRIGYHISLYSLSTSFPRRPLAVEGGQSLEDIGITVDTVLILEEKE | failed
10 | MGRKRKHSETEAPAPVKKSDEPAPDRPKRTLLGWKDKSEGEAEKAKALTSSGFKNKEKVLVTCSRRISFRYRSLMLNIVSLLPHCKKDSKVEAKSSKGATLNELIELKNSNSCLFFECRKHKDLYMWMVKSPNGPSVKFLVKAVHAMEEMKLTGNHLKGSRPLLTFSSNFDKDAHWKLLKEMLTQVFGIPKEHRKSKPYHDHVFVFSIVDEHIWFRNYQISVPHNESDKIAKGGLDKMTLIEVGPRFCLNPIKIFAGSFGGPTLYENPLYVSPNQIRALEKRNKAGKFAKKIKAKTRKKMHELSNPLEPDEFADMWKDDE | failed
11 | MSVPDNVYLIGTMNTADRSLAGLDIALRRRFDFVEMAPRPDKLTGVKVAEIDISAVLETMNRRIEVLLDREHRLGHAYFMSLENSNDLSRLSNIFRQQIIPLLQEYFFEDWQRIAWILNDHRKDERFRFIVPAPYSVDSLFGDTGQVAQDSKAWRMNEEAFHKPLEHHHHHH | failed
12 | MTPVQIAAVVVTYESSSTIDACLSRLRAAEGISEIRVVDNASSDDTLEVVQRHALADARLHFIANPDNPGFATACNQGARDSQAPWLVFINPDLMIARDTLLQLYHRAAGHPAVLLGVEQVDEQGRPDAAVRRRDPDFAAMLRAPRAAANLAVPADPSRALQPVDAISGALMLMQRSLFDRLDGWDGSYRLHAEDLDLCRRARQAGALVAVANDLHVLHVRGVSSRARPFFVEWHKHRGLWRYFRKFEADRRGLLTRLGVWLAIWSHAAAQVPRLLQNKLEHHHHHH | failed
13 | MRLLVSCVDSGSIKEVLCNIGTDTSVQSALQPFHVAPHLAEGLKAYVDRMWVISEDEAILARNSGVVELVKISKHLKENEALQVDPKGESKNEKSLSDDLPKFDISEFEITSSVSDLFDDAKLESLSSKSVKRTKLVDGFVTLCPIKKDSSNNTFVAATKSGLLHIIKKGEDKKLIKLASLGLKAPVEFLQLYDLEDTDTDKYIFAYGGEENLIKLVEIDSSFQSLKQIWEAKNVKNDRLDMRVPVWPMALRFLEPSPGKTEKGKLNYQFAAITRWSHLTKYSTQHGRKPFAQIDLLPNREPLSQMEVFDAKGENVVSSLGNFQSETFNELNVITTDYKKNVFKFDGNGRMLGKVGRDDITGSSTYIHVHDGKYLLQGGLDRYVRIFDIKTNKMLVKVYVGSRINFIVMLDDVEIEMPLSPSAKAAKGKQKRKVTELEEDADELWNKLEGKVAASKASKKSKI | not failed
14 | MPIIELVILLACLVLLSNVLSHYLVAIPVSLIQVGLGLGVALLLNVQVKLQTDWFMLVFIAPMLYNDGREFPKQELWELRGAIFANAIVLVFITTILGGFLIHVLIPTIPLAVGIALAAILSPTDPIAVQSISEGVKLPKEILHLVSGESLINDASGLIGFKYALAAAVTGTFVLGEAVGDFFYISLVGLAVGLALITIIQLIRDVLRREGINDIVFNVVLQILTPFAIYFIAEEWFHASGVVAVVAAGVLSHLQNSHESEDAPELRLVTERVWNVVVYLLNGIVFLILGIELPAATQATIKGAHTNTFHAVFDVLIVWGILLLIRVAWTYAYMLFNWLRHHKKAKPSLRIAALSGLSGVRGAITMAGVFTIPTVVASGKAFPERALVLFIAAGVIIVSLVAAAAILPLMAAKSLPFVTRGSSPDEDDAVLAEGTDDGDDSSGQLPQLTYKQARIYILQLAIQNIEEHRRPANQRAAYDLILDQQFQIRRLEVASQTADELAPMLTDELELRLVALNGERAAVREMIANKQTSKLAGQVYLRRVDRREQRFLQATHRQGLPTLRSLRLLLTRAMQGIRLWLAPGDSEELRVALLDIQREASKAAIKALSQYLKQANVDEQQFDRQALYHLIVHYRNRIENAKNDHTLSRDDYEQQLHGLRIKSLGAERAGVQHLLESGQISLRTAAKLRQFINYSENLLMLNDIEADED | failed
15 | MNSNIYAVIVTYNPELKNLNALITELKEQNCYVVVVDNRTNFTLKDKLADIEKVHLICLGRNEGIAKAQNIGIRYSLEKGAEKIIFFDQDSRIRNEFIKKLSCYMDNENAKIAGPVFIDRDKSHYYPICNIKKNGLREKIHVTEGQTPFKSSVTISSGTMVSKEVFEIVGMMDEELFIDYVDTEWCLRCLNYGILVHIIPDIEMVHAIGDKSVKICGINIPIHSPVRRYYRVRNAFLLLRKNHVPLLLSIREVVFSLIHTTLIIATQKNKIEYMKKHILATLDGIRGITGGGRYNA | failed
